The results in this text go back to patent publication US20230265151A1, “GIP/GLP1 CO-AGONIST COMPOUNDS” (priority 2020, published 2023).

*1 amine or outer side, *2 acyl side, *3 side chain or, on linkers, in order; H or OH if unused. Where no end group is shown, it is not given here. Side-chain parts run from the residue outwards. [ ]: non-standard residue; d: D form. The star is where a group is joined. Decanoyl(10-(4-HOOC-PhO)) = O=C(O)c1ccc(OCCCCCCCCCC(=O)*)cc1; αMePhe(2-F) = C[C@](N)(Cc1ccccc1F)C(=O)O; γGlu = O=C(O)[C@H](CCC(=O)[*:2])N[*:1]; C14 diacid = O=C(O)CCCCCCCCCCCCC(=O)*; αMeY = C[C@](N)(Cc1ccc(O)cc1)C(=O)O; 4Pal = N[C@@H](Cc1ccncc1)C(=O)O; αMeL = CC(C)C[C@](C)(N)C(=O)O; Lauroyl = CCCCCCCCCCCC(=O)*; Orn = NCCC[C@H](N)C(=O)O; AEEA = NCCOCCOCC(=O)O; Aib = CC(C)(N)C(=O)O

One assay deals with T1, human GIP receptor (human, UniProt P48546 22-466).
T1 construct: whole, on cells; also called hGIPR; human glucose-dependent insulinotropic polypeptide receptor
T1 sequence (looked up): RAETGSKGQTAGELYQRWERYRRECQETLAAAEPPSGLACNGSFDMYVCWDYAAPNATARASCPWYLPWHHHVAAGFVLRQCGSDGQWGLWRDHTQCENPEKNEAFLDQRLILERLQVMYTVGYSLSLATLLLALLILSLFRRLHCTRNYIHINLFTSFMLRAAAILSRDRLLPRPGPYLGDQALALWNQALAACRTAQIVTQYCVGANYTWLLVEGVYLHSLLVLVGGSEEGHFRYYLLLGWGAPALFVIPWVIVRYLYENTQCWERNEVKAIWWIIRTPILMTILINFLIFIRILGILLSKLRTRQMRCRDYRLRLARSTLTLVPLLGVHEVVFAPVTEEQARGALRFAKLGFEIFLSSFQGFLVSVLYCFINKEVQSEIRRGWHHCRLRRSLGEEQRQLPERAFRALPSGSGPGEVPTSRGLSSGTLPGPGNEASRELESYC
In words: SPA competition vs [125I]-GIP, hGIPR membranes.

A further assay concerns the target T2, human glucagon receptor (human, UniProt P47871 26-477).
T2 construct: whole, on cells; also called hGCGR; hGcgR
In words: SPA competition vs [125I]-Gcg, hGcgR membranes. As for the experimental part: The binding buffer contains 25 mM 4-(2-hydroxyethyl)-1-piperazineethanesulfonic acid (HEPES), pH 7.4, 2.5 mM CaCl₂, 1 mM MgCh, 0.1% (w/v) bacitracin (Research Products), 0.003% (w/v) Polyoxyethylenesorbitan monolaurate (TWEEN®-20), and Roche Complete™ Protease Inhibitors without EDTA. […] Plates are sealed and mixed on a plate shaker (setting 6) for 1 minute and read with a PerkinElmer Trilux MicroBeta® scintillation counter after 12 hours of incubation/settling time at room temperature.
Data are analyzed using four-parameter (curve maximum, curve minimum, IC₅₀, Hill slope) nonlinear regression routines (Genedata Screener, version 12.0.4, Genedata AG, Basal, Switzerland). […] Values for Kᵢ are reported as the geometric mean, with error expressed as the standard error of the mean (SEM) and n is equal to the number of independent replicates (determined in assays performed on different days).

For another assay, the target named is T3, human GLP-1 receptor (human, UniProt P43220 24-463).
T3 construct: whole, on cells; also called hGLP-1R; human glucagon-like peptide-1 receptor
In words: SPA competition vs [125I]-GLP-1, hGLP-1R membranes. A digest of the protocol: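 Kᵢ values are geometric means (SEM) over replicates run on separate days, derived from IC₅₀ of four-parameter curve fits. Buffer: HEPES 25 mM pH 7.4 with CaCl₂ 2.5 mM, MgCl₂ 1 mM, bacitracin 0.1%, TWEEN-20 0.003%, EDTA-free protease inhibitors.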

T2 sequence (P47871 26-477): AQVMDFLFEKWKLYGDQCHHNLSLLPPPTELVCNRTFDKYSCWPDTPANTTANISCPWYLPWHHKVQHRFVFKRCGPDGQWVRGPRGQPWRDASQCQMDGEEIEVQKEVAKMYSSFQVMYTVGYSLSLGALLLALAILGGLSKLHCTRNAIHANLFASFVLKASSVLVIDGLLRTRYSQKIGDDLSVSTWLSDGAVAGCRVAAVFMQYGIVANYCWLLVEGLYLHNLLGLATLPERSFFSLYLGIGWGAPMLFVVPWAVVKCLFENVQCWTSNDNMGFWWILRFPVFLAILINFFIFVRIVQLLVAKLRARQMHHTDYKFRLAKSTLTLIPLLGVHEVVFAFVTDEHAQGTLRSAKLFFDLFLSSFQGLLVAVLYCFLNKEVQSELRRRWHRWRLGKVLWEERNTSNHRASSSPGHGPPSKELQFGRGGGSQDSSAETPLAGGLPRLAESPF

Y[Aib]EGT[αMePhe(2-F)]TSDK([AEEA-AEEA-γGlu-Lauroyl])[Aib]I[αMeL]LD[Orn]K([AEEA-AEEA-γGlu-Lauroyl])AQ[Aib][4Pal]FI[dE][αMeY]LIEGGPSSGAPPPS-NH2: the figures for the Ki with human GIP receptor, with human glucagon receptor and with human GLP-1 receptor were 0.0152 nM, 51.8 nM and 0.156 nM, respectively.

As to Y[Aib]EGT[αMePhe(2-F)]TSDV[Aib]I[αMeL]LD[Orn]QAQ[Aib]EFIK([AEEA-AEEA-γGlu-Decanoyl(10-(4-HOOC-PhO))])[αMeY]LIK([AEEA-AEEA-γGlu-Decanoyl(10-(4-HOOC-PhO))])GGPSSGAPPPS-NH2, the values for the inhibitory constant (Ki) with human GIP receptor, in the assay with human glucagon receptor and in the assay with human GLP-1 receptor were 0.0369 nM, 109 nM and 0.382 nM, respectively.

B1: Y-Aib-EGT-αMeF(2F)-TSD-4Pal-SI-αMeL-LD-Orn-K((2-[2-(2-Amino-ethoxy)-ethoxy]-acetyl)2-(γ-Glu)-CO-(CH2)14-CH3)AQ-Aib-EFI-(D-Glu)-αMeY-LIEGGK((2-[2-(2-Amino-ethoxy … (peptide)
peptide: YXEGTXTSDXSIXLDXKAQXEFIXXLIEGGKSSGAPPPS
modifications: Aib2, αMeF(2F)6, 4Pal10, αMeL13, Orn16, K17(Z1), Aib20, D-Glu24, αMeY25, K31(Z1), C-term NH2; Z1=AEEA2-(γ-Glu)-CO-(CH2)14-CH3
Consider B1, for which the inhibitory constant (Ki) with human GIP receptor was 0.0501 nM; with human glucagon receptor, 1.46 nM; in the assay with human GLP-1 receptor, 0.362 nM.

B2: Y-Aib-EGT-αMeF(2F)-TSDK((2-[2-(2-Amino-ethoxy)-ethoxy]-acetyl)3-(γ-Glu)-CO-(CH2)10-CH3)-Aib-I-αMeL-LD-Orn-K((2-[2-(2-Amino-ethoxy)-ethoxy]-acetyl)3-(γ-Glu)-CO-( … (peptide)
peptide: YXEGTXTSDKXIXLDXKAQXEXIXXLIEGGPSSGAPPPS
modifications: Aib2, αMeF(2F)6, K10(Z1), Aib11, αMeL13, Orn16, K17(Z1), Aib20, αMeF22, D-Glu24, αMeY25, C-term NH2; Z1=AEEA3-(γ-Glu)-CO-(CH2)10-CH3
With B2, the values for the Ki with human GIP receptor, with human glucagon receptor and with human GLP-1 receptor were 0.0372 nM, 64.9 nM and 0.412 nM, respectively.

B3: Y-Aib-EGT-αMeF(2F)-TSD-4Pal-SI-αMeL-LD-Orn-K((2-[2-(2-Amino-ethoxy)-ethoxy]-acetyl)2-(γ-Glu)-CO-(CH2)12-CH3)AQ-Aib-EFI-(D-Glu)-αMeY-LIEGGK((2-[2-(2-Amino-ethoxy … (peptide)
peptide: YXEGTXTSDXSIXLDXKAQXEFIXXLIEGGKSSGAPPPS
modifications: Aib2, αMeF(2F)6, 4Pal10, αMeL13, Orn16, K17(Z1), Aib20, D-Glu24, αMeY25, K31(Z1), C-term NH2; Z1=AEEA2-(γ-Glu)-CO-(CH2)12-CH3
B3: the Ki in the assay with human GIP receptor turned out to be 0.024 nM; in the assay with human glucagon receptor, 4.29 nM; with human GLP-1 receptor, 0.139 nM.

B4: Y-Aib-EGT-αMeF(2F)-TSDV-Aib-I-αMeL-LD-Orn … (peptide)
peptide: Y[Aib]EGT[αMePhe(2-F)]TSDV[Aib]I[αMeL]LD[Orn]QAQ[Aib][Orn]FIK([AEEA-AEEA-γGlu-C14 diacid])[αMeY]LIK([AEEA-AEEA-γGlu-C14 diacid])GGPSSGAPPPS-NH2
modifications: N-terminus assumed
SMILES: CC[C@H](C)[C@H](NC(=O)[C@H](CC(C)C)NC(=O)[C@](C)(Cc1ccc(O)cc1)NC(=O)[C@H](CCCCNC(=O)COCCOCCNC(=O)COCCOCCNC(=O)CC[C@H](NC(=O)CCCCCCCCCCCCC(=O)O)C(=O)O)NC(=O)[C@@H](NC(=O)[C@H](Cc1ccccc1)NC(=O)[C@H](CCCN)NC(=O)C(C)(C)NC(=O)[C@H](CCC(N)=O)NC(=O)[C@H](C)NC(=O)[C@H](CCC(N)=O)NC(=O)[C@H](CCCN)NC(=O)[C@H](CC(=O)O)NC(=O)[C@H](CC(C)C)NC(=O)[C@](C)(CC(C)C)NC(=O)[C@@H](NC(=O)C(C)(C)NC(=O)[C@@H](NC(=O)[C@H](CC(=O)O)NC(=O)[C@H](CO)NC(=O)[C@@H](NC(=O)[C@](C)(Cc1ccccc1F)NC(=O)[C@@H](NC(=O)CNC(=O)[C@H](CCC(=O)O)NC(=O)C(C)(C)NC(=O)[C@@H](N)Cc1ccc(O)cc1)[C@@H](C)O)[C@@H](C)O)C(C)C)[C@@H](C)CC)[C@@H](C)CC)C(=O)N[C@@H](CCCCNC(=O)COCCOCCNC(=O)COCCOCCNC(=O)CC[C@H](NC(=O)CCCCCCCCCCCCC(=O)O)C(=O)O)C(=O)NCC(=O)NCC(=O)N1CCC[C@H]1C(=O)N[C@@H](CO)C(=O)N[C@@H](CO)C(=O)NCC(=O)N[C@@H](C)C(=O)N1CCC[C@H]1C(=O)N1CCC[C@H]1C(=O)N1CCC[C@H]1C(=O)N[C@@H](CO)C(N)=O
Consider B4, for which the Ki with human GIP receptor worked out at 0.0314 nM; with human glucagon receptor, 116 nM; with human GLP-1 receptor, 0.367 nM.

B5: Y-Aib-EGT-αMeF(2F)-TSDY-Aib-I-αMeL-LD-Orn-IAQ-Aib-Orn-FIK((2-[2-(2-Amino-ethoxy)-ethoxy]-acetyl)3-(γ-Glu)-CO-(CH2)12-CO2H)-αMeY-LIK((2-[2-(2-Amino-ethoxy)-ethox … (peptide)
peptide: YXEGTXTSDYXIXLDXIAQXXFIKXLIKGGPSSGAPPPS
modifications: Aib2, αMeF(2F)6, Aib11, αMeL13, Orn16, Aib20, Orn21, K24(Z1), αMeY25, K28(Z1), C-term NH2; Z1=AEEA3-(γ-Glu)-CO-(CH2)12-CO2H
Regarding B5, the inhibition constant (Ki) with human GIP receptor came to 0.0406 nM; with human glucagon receptor it was 49.7 nM; with human GLP-1 receptor, 0.407 nM.

B6: Y-Aib-EGT-αMeF(2F)-TSDY-Aib-I-αMeL-LD-Orn-IAQ-Aib-Orn-FIK((2-[2-(2-Amino-ethoxy)-ethoxy]-acetyl)3-(γ-Glu)--(10-(4-carboxyphenoxy)decanoyl))-αMeY-LIK((2-[2-(2-Am … (peptide)
peptide: YXEGTXTSDYXIXLDXIAQXXFIKXLIKGGPSSGAPPPS
modifications: Aib2, αMeF(2F)6, Aib11, αMeL13, Orn16, Aib20, Orn21, K24(Z1), αMeY25, K28(Z1), C-term NH2; Z1=AEEA3-(γ-Glu)-(10-(4-carboxyphenoxy)decanoyl)
On to B6, for which the inhibition constant (Ki) in the assay with human GIP receptor is 0.0266 nM; with human glucagon receptor it was 20.1 nM; in the assay with human GLP-1 receptor, 0.326 nM.

B7: Y-Aib-EGT-αMeF(2F)-TSD-4Pal-Aib-I-αMeL-LD-Orn-QAQ-Aib-Orn-FIK((2-[2-(2-Amino-ethoxy)-ethoxy]-acetyl)2-(γ-Glu)-CO-(CH2)12-CO2H)-αMeY-LIK((2-[2-(2-Amino-ethoxy)-e … (peptide)
peptide: YXEGTXTSDXXIXLDXQAQXXFIKXLIKGGPSSGAPPPS
modifications: Aib2, αMeF(2F)6, 4Pal10, Aib11, αMeL13, Orn16, Aib20, Orn21, K24(Z1), αMeY25, K28(Z1), C-term NH2; Z1=AEEA2-(γ-Glu)-CO-(CH2)12-CO2H
As for B7, the results for the Ki with human GIP receptor, with human glucagon receptor and with human GLP-1 receptor were 0.0279 nM, 289 nM and 0.346 nM, respectively.

B8: Y-Aib-EGT-αMeF(2F)-TSD-4Pal-Aib-I-αMeL-LD-Orn-K((2-[2-(2-Amino-ethoxy)-ethoxy]-acetyl)3-(γ-Glu)-CO-(CH2)10-CH3)AQ-Aib-Orn-FI-(D-Glu)-αMeY-LIK((2-[2-(2-Amino-eth … (peptide)
peptide: YXEGTXTSDXXIXLDXKAQXXFIXXLIKGGPSSGAPPPS
modifications: Aib2, αMeF(2F)6, 4Pal10, Aib11, αMeL13, Orn16, K17(Z1), Aib20, Orn21, D-Glu24, αMeY25, K28(Z1), C-term NH2; Z1=AEEA3-(γ-Glu)-CO-(CH2)10-CH3
Turning to B8, the Ki with human GIP receptor came out at 0.00965 nM; with human glucagon receptor it was 81.2 nM; in the assay with human GLP-1 receptor, 0.15 nM.
